Consider 18 molecules from PMC4222082, “Nitrogen starvation-induced transcriptome alterations and influence of transcription regulator mutants in Mycobacterium smegmatis”.

Sequences and labels used below:
T1: MBP-GlnR (Mycobacterium smegmatis (SMR5?)) (UniProt A0R4C4)
T1 sequence: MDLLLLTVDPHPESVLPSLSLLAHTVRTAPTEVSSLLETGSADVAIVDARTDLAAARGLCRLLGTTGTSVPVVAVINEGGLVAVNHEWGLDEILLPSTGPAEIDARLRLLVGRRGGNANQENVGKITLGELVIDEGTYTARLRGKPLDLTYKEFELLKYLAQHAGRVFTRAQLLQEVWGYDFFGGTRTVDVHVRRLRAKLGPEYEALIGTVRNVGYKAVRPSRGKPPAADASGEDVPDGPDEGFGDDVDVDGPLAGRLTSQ

T2: MBP-GlnR (Mycobacterium smegmatis, UniProt A0R4C4 1-261)
T2 sequence: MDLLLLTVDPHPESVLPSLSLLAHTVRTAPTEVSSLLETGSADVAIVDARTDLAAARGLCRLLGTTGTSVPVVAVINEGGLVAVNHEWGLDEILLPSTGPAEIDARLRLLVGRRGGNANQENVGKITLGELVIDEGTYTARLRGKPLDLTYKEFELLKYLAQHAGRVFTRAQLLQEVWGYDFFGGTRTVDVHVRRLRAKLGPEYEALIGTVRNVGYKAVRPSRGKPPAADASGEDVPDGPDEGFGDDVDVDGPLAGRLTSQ

B1: amtB fragment 6 (dsDNA)
DNA 1: TGCGTTCACTTTCCGGAAACGCAACGGCAGCACCGGCGAAACGCCGGCAA
DNA 2: TTGCCGGCGTTTCGCCGGTGCTGCCGTTGCGTTTCCGGAAAGTGAACGCA
B2: amtB fragment 6.1 (dsDNA)
DNA 1: TGCGTTCACTTTCCGGAAACGCAAC
DNA 2: GTTGCGTTTCCGGAAAGTGAACGCA

The first data set concerns the target T1, MBP-GlnR (Mycobacterium smegmatis (SMR5?)). Nature of the data set: EMSA. Conditions: GlnR: DIG Gel Shift Kit (Roche) buffer, 6% native PAGE, 0.5x TBE; AmtR: 20 mM Tris-HCl pH 7.9, 25 mM KCl, 1 mM DTT, 5 mM MgCl2, 0.5 mg/ml BSA, 5% glycerol ….
Regarding “CCGGATGTTCCTTTCAGCTCTGCAGATTCGGGTGCCGTCAGTCCCAGTGCGCCTTGAAACCCAGTGCCGGGACGGTCTCCCCCAGCCCGGGTGTGGAGGCCTTGCGGATCAGGGCCAGTGTCTCGGCATACGTGGTGTGGTTCTCCGCGAGCCGCTCGGCGGGCACGGGCAGGCCCGCGAACTCGAACGCCGCGGAAATCTGTTCCTGCGATGGCATGAAATCGGACATGGTTCTCCTCGCTCTCAGAGGTTGGGGGTGAAGTCGACGAAACCGGCGATCCGCTCGAAGGCCCGGCCTG (double strand) [msmeg_1090 upstream]”, the binding entry is “no binding”. In the case of “CGGGGTCATCGGGCGGTCCGGCACGCCCGGCAAGGCCTGGGCCTGGCAGACCCGCTCGTGGTCGAAGGGCAAGATCCACCCCGCGGCGGTGCTCTATCAACACACCATCGACACCGCGTCGAACCCCGGACCGTTGGTCGGCGGCATCCGCGTGGATGTCAACGACGCCTTGGCCCAGGACATCGGCCAGTGGAATTTCCACCCCTGAGGTCACATCACTTTAATCTCGACGCAATTGCGTTGCCATACCGGTGATCTCTACTGAAGGCGCCAGCAGCCCCCTTCAGAGGACACCCGCCC (double strand) [msmeg_6816 upstream]”, the binding result is reported as “no binding”. Turning to “GAACAACCTTTCCCGATGATTGCAGCGCATTTTGGGCCGATCGCCTCGGCCGCGGTGCAGGAGGTTAAACACACTGTGCTGGTGTCGAATCGGGACGTTAGAGCGCGCGTGTTACTGCCAAATGTCTGTGTGTGACGAACAAATTAACCTCGACATGACATGCCGCTGGTTTGCCGCCGGTTCTCGACGCCGTGACACCGGCGTGGCGTGTGTAACGGGGAGGTAGCCTGCGTCGATATG (double strand) [urtA upstream]”, the binding entry is given as “binds”.

Consider “GCCCTCCGGGCGGTATCTGCGCCTGAACTTCTCCGGGCCGGAGCCGGACCGGTTCGAGGAGGCGGCGCGCGTGATCGGACGGTCGCTGCGCAGACAGCTGTGACCCGGCGGTTGTGGCCTGACTGTGGTCCGGAGAGCTCACCGGTCGGGGACCTCACATGTGCGTTGCCGAAGACGTGAGCACACCGTGATGGGGGCTTCACACAGCGCGACATCGCGGCAATATCGGGTTCTTAGCCTCGCCCTATG (double strand) [nirB upstream]”, for which the binding result is “no binding”. For “GCGAGGCAGACTAGCGGCATGACCGATGACGGCTACACAGTCGGTGACTACCTCCTGGACCGGCTCGCCGAACTCGGCGTGACCGAGGTCTTCGGCGTCCCCGGCGACTATCAGCTGGAGTTCCTCGACCACGTCGTGGCGCACCCGCGCATCACGTGGGTCGGCGGCGCGAACGAACTCAACGCGGGCTACGCGGCCGACGGCTACGGCCGGCTGCGGGGCATGGCGGCGTTGGTCACCACGTTCGGCGTCGGTGAGCTCTCGGCGGCCAACGCCATCGCAGGCAGCTACGCCGAGCAC (double strand) [msmeg_5734 upstream]”, the binding result was “no binding”.

Take “GGACCGGGACCGGATAGCCAGGATCCCAACCGGGAGCCGTTTGTGCGGGCCATGATGTCAGGATAGGCGCGTGCGGATGTCCGGCCGCCGGGTGCCACGTCGCGACGCGGTTCACACCGATGTGTGCTGGAGTTCACCGGCGGACACGCTCAAACCGATTGCGTAACGTCGGCGCAACATCGGGTTGACGACTGCGCAACATCGTGTCCTTAGCGTCAACGCGCGGGTTACCAGTAAAGGAGAACACTCA (double strand) [glnA upstream]”: the binding entry is “binds”. Same read-out and setting: the result for “GGGGTCACCACCTGCTGCTCGGCATCCACCATGTATCCCAGGAACGCACCGGCCCGGCGCGAAACGTGGTAGTGCACCACGAGTTTGCGCCCGCATCCGGTGCAGCCCACCAGGCCGTCGATCTCGACCGCGGCGGTGGTGACGGCGCGGCAGTGCGTACAGAACACGTCGCGGTGGGCGACCTCGGTGCTCGCGATCGTGATCTCGTCGTCGGCGATACCGTGCGCGAGGGCGTGGGCACGCACACGCAGATTCAGGTGAGCGGGGCCGGCGGTCATCAGTCGCCAGCCCACCACCGCG (double strand) [msmeg_4638 upstream]” reads “no binding”; that for “GGGTCTCTCCAGGGAGGCGATGAGGGTGCGGGCGGCGACAGTGCCGGGAGCCGGATGATCGGCTGGGTCAATTACAGGCCCCGGCCATTGCCGTGTGGTTAGGGATGGACTACTTCTGAATTGCCGAAATCTCACAGCGGCAATGTGCTCGTAATAAGTGCAGCATGCGCCTTGACCTCAACCTCACTTGAGGTGCCAGGCTGGCTCTCATGACATGTGGACTCCAGTGGCCAGAGGCGGTAAACCGCCGCGAACCCGGGGGTAAACCCCCTGGGGACCTGGATCGGCACGCAGTAACTT (double strand) [msmeg_0572 upstream]”, “binds”; that for “GGTGCCGACCGCCCCGACGACGAGCGCGGCCACCGCCGCGACGAACCCGACCACCAGTCTGCGCACCGGGACATTGTTGCCCACGAGACCGGCAAAGATTCGCTCGGCGCGGCTGACGAGCAGGTGAGGCGTTATCCTCGTAACACCAAAGGCCGGTAACGGCTACATGTCAGTCATGAATCCGGAAGATCACCCGACACCGGCGTCTGTGTTCTCCCGCAGAGATTCCTGACGAGCCGGGAGGACTTG (double strand) [glnR upstream]”, “no binding”. On the same count and under the same terms, the result for “GGTGGCGGCGAGTTCGATACCGCTGTCGCTCAACGTGACCGGCGGCCACCCCAATCCGGTGAGGTCCACGAGCCTGCGCAGCTGAGGTTGGGGCTCGGAAAACAGCCAGGTCCCACCGGCCAACACCGCGTCGCCGGCCCCCAGCGGCCACACCTCCTCGCGACGGGTCGGCCGGTCCACCACCTCGACGGTGTTGAGGTCCATTCCCGCGACCGTAACCAAAGTGAACGCGCCGTGCACCATGAACCGTGGCACAACGCTCGGCGTGCGAACCGCCGCGATCTGTCCGATTCTTAGTCG (double strand) [msmeg_1293 upstream]” reads “no binding”; that for “GTCCGCCAAGTTACCGGCCGGAAAAATAAGGTGCGCGCCTCCCTTATCCTTGTTGGGACTCATTCCGGCTCGATCCCACATGCGAAAGGTTGATCAGGTGGCGCTCGTCGTACAGAAATACGGCGGATCCTCGGTGGCGGACGCCGAGAGGATCCGACGGGTCGCCGAGCGGATCGTCGAGACCAAGAAGGCGGGCAACGACGTCGTCGTCGTCGTCTCCGCGATGGGTGACACCACCGATGACCTGCTGGACCTGGCGCGCCAGGTGTCGCCCGCGCCGCCGCCGCGCGAGATGGACAT (double strand) [msmeg_6258 upstream]”, “no binding”; that for “GTGGCGCGGCAGGGCGGCCACGGGCAGGCCCTGCTGGTCTTCGACACCGGTGACGGCCGCACGCTGCAGACCCATCCGCTTCCCGAGGCCACCGGCTGGCCGGTCGGGGTATCGATCGGCCACGACGGCCGCGTGGTCACCGCGACGAGTGACGGGCAAGTGTATGGCTTCTCACCGGCATGATGCCGGAAGTTTTACAGGGAATTGACGAAATCTCCACAGAAAGTGGTGGGCTTCGTGTGAGGATTTGGCGCGGCAACCGTGCAAGATCAATGAATTTCTGGGGGAAGGCAATAACCA (double strand) [msmeg_1052 upstream]”, “no binding”. On the same count and under the same terms, the result for “GTGTGAACCTCCTTGGGAAGTGCGCCGACGGATCGGCCTCCCGATGAGATTCTGTTGCCGGCGTTTCGCCGGTGCTGCCGTTGCGTTTCCGGAAAGTGAACGCAATCCCGATCACTGTTACGCTCATGTTTCCCGCCGACAAAGCACAGGTCGTTGCACAGCCAACGCCGGCTGTAACGCCCCGCAAACACTCCCGCTGCGGCGCCGCGAACCCGACGTC (double strand) [amtB upstream]” reads “binds”; that for “TGAGGGTCCTAATCCGTCCCTGAACAGGGAAATTACCGGACCATTTTTTGGTCTGGTCTGAGAATGTCGCCGACGACGTTGTGCTGCGACGCTGGCAATTGTTACCGCGCCCAGATTCGTTGGTCAACTTGGAATTACCTGTACATATGCGGGTTTGTTGCAAACATGTTTCGAAGCTGGGAGCCATGCAACGGCAGCGTAAAAATTCTCGATTTGGTCTGCTCTGGTTCGGCTTTTGGTCCACACTCTTCGACATGCCGGGACTTCCAGCTGACCACGAACTGTTCGCGCGCGCCGCAC (double strand) [msmeg_0781 upstream]”, “binds”; that for “TGCAGTATCACTACTTTCTTGTTATCCACTTGTCAGGCGTTCGCGGTCTCTGGAGTTTGCTGTGAGGTTTCCTTGAGCCCGAGGCGGGCCCGGATGACGAGGCCGATGACGAACAGTGCCGCGGTGACGATGAACGGCGCCCAGTCGACCCACGGGTCGCCCGTGCGGGGCCACAGGACGTTGACGGTCTCCACGATCACCCACACCAGCGCGAGCCACCCCGCAACGTGTCCGGCACGGCCCAGGAAGGTCGGTTCGGTGGGGTCCCAGGTGCCCCGGAGCTTGCTGATCGCCAACCCC (double strand) [msmeg_6734 upstream]”, “no binding”. For “TTCGGTGTACCTGTGGAAGAACACCGTGGAGAAGGCACAGTCCTTCGACGTCAAGGCAATTCAGGACAACGCCGATGGCGTGAGCTTCGACGCGCCCGAGGGCAAGGTCACCATCGACGGCGAGAACCACCACATCACCAAGACCGCCCGCATCGGTGAGATCCGCCCCGACGGCCTGATCTACACGGTGTGGGAGTCCAAGGGCCCCATCGAGCCGGATCCGTACCTGAAGTCCTACCCGTGGGCCGCAGGGCTGTCGAGCTGATCAGATAGTCACACCGAGGGGGATCTGACAACCGT (double strand) [msmeg_2981 upstream]”, the binding result is given as “no binding”.

Another data set addresses T2, MBP-GlnR. Nature of the data set: competition; 1000-fold excess vs 220 bp amtB probe; GlnR: DIG Gel Shift Kit (Roche) buffer, 6% native PAGE, 0.5x TBE; AmtR: 20 mM Tris-HCl pH 7.9, 25 mM KCl, 1 mM DTT, 5 mM MgCl2, 0.5 mg/ml BSA, 5% glycerol, 2 ug sperm DNA, 25 C 30 min. The conditions noted are these: protein: recombinant; (pMal-c2-glnR); chain copies: 2; label: digoxigenin when used as probe.
Regarding B1, the binding result was “binds”.

The next data set concerns the target T2, MBP-GlnR. As to the kind of experiment: competition; 1000-fold excess vs fragment 6 probe; GlnR: DIG Gel Shift Kit (Roche) buffer, 6% native PAGE, 0.5x TBE; AmtR: 20 mM Tris-HCl pH 7.9, 25 mM KCl, 1 mM DTT, 5 mM MgCl2, 0.5 mg/ml BSA, 5% glycerol, 2 ug sperm DNA, 25 C 30 min. The conditions noted are these: protein: recombinant; (pMal-c2-glnR); chain copies: 2.
In the case of B2, the binding result is on record as “binds”.
